The record followed here is paper PMC5349611.

In data set [1] the test system is IolR-His6 (Salmonella enterica serovar Typhimurium 14028). In words: SPR (OneToTwo). As to conditions: EMSA: 100 ng DNA in 1x Tris/borate/EDTA, 20 ul, 45 min, 12% native PAA gel run at 4 C, SPR: streptavidin chip, 30 ul/min, 25 C, 0-330 nM IolR, buffer not in ….
Data set [2] shares this test system. In words: SPR (Interaction Map). The conditions noted are these: EMSA: 100 ng DNA in 1x Tris/borate/EDTA, 20 ul, 45 min, 12% native PAA gel run at 4 C, SPR: streptavidin chip, 30 ul/min, 25 C, 0-330 nM IolR, buffer not in ….
Data set [3] concerns the target T1, IolR-His6 (Salmonella enterica serovar Typhimurium 14028) (UniProt Q8ZK65).
T1 sequence: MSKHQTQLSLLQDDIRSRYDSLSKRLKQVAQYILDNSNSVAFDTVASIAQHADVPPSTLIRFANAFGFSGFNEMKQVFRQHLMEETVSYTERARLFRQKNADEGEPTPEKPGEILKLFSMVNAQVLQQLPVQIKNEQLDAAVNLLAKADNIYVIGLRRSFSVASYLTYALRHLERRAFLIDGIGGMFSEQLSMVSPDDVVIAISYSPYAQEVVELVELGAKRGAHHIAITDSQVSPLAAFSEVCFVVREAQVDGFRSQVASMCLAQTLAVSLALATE
Nature of the data set: SPR (OneToTwo). As to conditions: EMSA: 100 ng DNA in 1x Tris/borate/EDTA, 20 ul, 45 min, 12% native PAA gel run at 4 C; SPR: streptavidin chip, 30 ul/min, 25 C, 0-330 nM IolR, buffer not in ….

In the case of PiolR SPR fragment, the Kd amounted to 425 nM in data set [1] (KD1, ka1 1.3e5 M-1s-1, kd1 5.5e-2 s-1) and 6 nM in data set [1] (KD2, ka2 2.4e5 M-1s-1, kd2 1.4e-3 s-1).
In the case of PiolT1 SPR fragment, the Kd in data set [2] (high-affinity component, peak weight 40.5%, ka 6.95e5 M-1s-1, kd 5.78e-4 s-1) came to 0.81 nM; in data set [2] (low-affinity component, peak weight 57.6%, ka 1.05e5 M-1s-1, kd 3.2e-2 s-1), 312 nM.
Take “GGTGTGTCATCAATGGTTGTCTGTTGTGACGAGGAAAGATTTGGAAAAAATTATGATCTATATAGCATTTTTGTTTCATTTGGTGTGGTATAAAAATTCAAATTTCAGGGGGGTTTCGGCACCACA (double strand) [PreiD SPR fragment]”: the Kd in data set [3] worked out at 321 nM.
On to “TTGCTCAGAACCCAGCCCGCCAGCAAATTCTGTACTGAAGGTAACCACAGCGCAATTTGAATGTTGTTAACTGTATGTTCAGTTCATTTGTGCTAATATGGTTATTTACGAAATTTTCGTTCTATTAGAGTATCATGCATGTCTAAACATCAAACTCAACTTTCCTTACTGCAGGATGATATCCGCAG (double strand) [PiolR SPR fragment]”, for which the dissociation constant (Kd) in data set [3] was found to be 425 nM.
With PreiD SPR fragment, the dissociation constant Kd was found to be 321 nM in data set [1] (KD1, ka1 1.5e5 M-1s-1, kd1 4.9e-2 s-1) and 6.6 nM in data set [1] (KD2, ka2 2.1e5 M-1s-1, kd2 1.4e-3 s-1).
